The PETadex activity labels

B1: unnamed (protein)
chain: MQRKRYNTITNRARASLLAGVGLAFFSVLAQADVLFQENFDSSLGQFTSTGSVSVTTSGARMAGSFGGTDGAITSSPISTVGFTGITLTLTRTTTGLDSGEAGIAEFSTNGSTYTVIQSLQTASGAVTLNLPATAGGQSSLRLRFRVNASSSTEYFTVDSIRLEGTPGSGGGGGGTNPYQRGPAPTTSSLDASRGPFSVGSRTVSDTQVSGYDGGTLWYPTNTSEGPFAAIAIIPGFLSSEGSIREWGPRLASWGFVVITVETLTYGDLPPSRRDQLIAAMNDVLMWSDQSGHPIYGKVDKTRQALMGWSMGGGGTLLGLQENPTRFKAGIGLAPWNSTETFTSSIRQPVLIFACESDIIAPVASHAYPFYRNMPTTNKKAFAEVNNGDHFCANDPRNNSGRLGRYGVSWMKRFLDDDTRFTQFLCGTHSTWTFSRYLSTCPY
B2: unnamed (protein)
chain: MTTSNTRTLARLALAAAALLLSAAAQAQANPYQRGPDPTAASLEATAGPFAVATTKVASPSGYGGGTVYYPTTTEGPFGLIAVAPGFTETQSAISWWGPRLASHGFVVITIDTKSTLDQPASRAKQLMAALNYVVALSQTSSSPFYGKVDASRQGVMGHSMGGGGTLEAARDNPTLKAAIPLAPWNTTKNFSKVTVPTLIIACENDAIAPVSSHASPFYDSLPSSLDKAYLELKGADHFCTNSSATNKTVIGKYGVAWMKRFVDNDTRYSPFLCGAPHQADLSGSVISRYKDNCPY
B3: unnamed (protein)
chain: MASRQSKTRLTRRAKLTALAAATLLSFAAQAQTVIFSENFGSGLGQFTTSGTVSTSSGAAVIQGCYNCTDGAIVSKSISTVGYTGLKLSYDRSTTGLDSGEYGVSAYLVSGGAWTAIENITSSSGRVTLTLPAAVENQASVQLRFRVSSSLSTETLTVDNVVLEGTSASGGGGGGAGYEKGPNPTNAALEASAGPFTVATKAVSASSASGYGGGTIYYPTNVTGTLGAVVVIPGYTAYQSSVSWWGSRLASHGFVVMTIDTNSIYDLPPARATQLMAAVNQLKVFNATAGHVIQGKIDTTRMGIMGWSYGGGGTLIAARDNPSLKAAIPFAPKTTTGTDFSGITMPTLIIGCESDSTAPVSSWSIPFYNSIPAAVKKAYLEVNNGDHFCPTTSGPSSVKPILGKYGVSWMKRWLDNDTRYSTFLCGSPHTTDLGNTAVISEYRDNCPY
B4: unnamed (protein)
chain: MNSNRTVPLRRAAIAVVLALTLVACDWKGPAPTDASLTAASGPFAVSTLAVPSSAGFGGGTIYYPSNVDGPFAAISVSPGFFSTQSAIAAWGPRLASHGFVVITINTTSLLADPTQRSTEQRQALAHVVNQGNTASSPIFGLVDGNRTGVAGHSMGGGASLISAQADPSIDAAMPFAPWNLGTNFAGITSPTLVLACQADGVAAPNSMASPMYNSIPATTKKMYLSVTNGDHSCANAPTGGNNDVGRYGVAFFKRWLDSDTRYDPWMCGASAPTAGGALNEVRSTCPF
B5: unnamed (protein)
chain: MPSADEPDAGTAPPPEPGSNHWERGPEPTAESASMPGPYQVESLTAELPDRVEYLSQTLWYPTDAEPPFAGFAIVPGFVSPEGSIAEWGPFLASHGIVVLTIGTNTGGDLPDVRALALAAAVEVLKGEHTRSGSPLEGSMDTDRMAVGGWSMGGGGTLLAIAADPSLKAGIGLTPWHIGALPFTEISVPTLMFAGTADVLAGGMSQGFYDAIPASTPKTLFEILGADHFYSNNPLLPNIEVGRYGLSWLKVFLEGDERYRQFLSVEPMGASDFRTTAP
B6: unnamed (protein)
chain: MKTTQFLRTAVCTFTLSFSLTAFSGGGGGSSDNDGNLPTPNSCTSNCGFEIGPNPNLNFVRASQGPLPVSTTTVASSVDGFGGGTIYYPSNISDEVAAIAISPGFTARQSSIAWWGPILASHGFVVITIDTNSRFDQPDSRGRQLDSSLSYLINESNRSNSPISGRVDDSRLAAMGHSMGGGGSLRSAARNRLSAAMPLAPFRVGGNDFDQIRVPTMIMACENDVVAPVGVHARPFYNRIPGSTDKVLLEINNGSHSCANGESSGNRPLLSTYGVSWMKRFLDKDRRYNQFLCGPNHEANSQISDFRDTCNF
B7: unnamed (protein)
chain: MRARTRLTALAAGLTLALGAPAATAATADQAQPAASASVEHGPAPTKESIGVDGPYKVASKKAPIDLKRSFYGGTIYYPADAGKGETYGTVVTMPGFLEPGAVMDLVAKRLASHGFVVMRAEALTPFSIPLVRAQAVLSAQKVLHADADLAPIMDTERTALVGHSMGGGGVLHAAAMSEQDAVIPIHPWAQTIFPLVKEPTLTIGGLLDNVAPMVEYTLPIYASIGSETKGLFTDLAGTHWAGLVDNKVIQGRILSFVKLHVDGDTRYEQFVCAPAEKGFTYKSPC
B8: unnamed (protein)
chain: MKSQFRKKIKKAKLESALKVFGAFMFASAISTPAAFAINPGGNSDGNSDAGCNSNCSLGIDPTSEMLEKEQGPYVIDYIDIPKSVAGFAGGRIHFPKGLDQRLGLVVIGPGFLYTDESSSRWLGPRLASNGFVTVNINFNTVMDQPDMRANQYDKALDYVIKLSKDSSSPLYGLVDENRLGAAGWSMGGGAALKLSNMRPLKAIMPWAPWYIPAGAFSSVQTPSLIIACKGDIIAPEGIHASAFYNVIPDSTPKEYVKFAKGNHWCSNNRSNYKPLIGKLSIAWFKRFMDEDNRYEKFICDGDIKDESGVAEFRDNCGSWK
B9: unnamed (protein)
chain: MLLVSANALSYTPAPVANPAPIAAPAPCQDCDFNRGPNPTNSSVERLGPYSVATQRVSSSVSGFGGGTIHYPTNIAGKVGAIAVVPGFVSPESSIRWWGPQLASHGFVVITIATNSIFDQPSSRERQLGRALDYVINQTNSSGTAISGLVDTNRLGAMGWSMGGGGSLRLANGGRLSAVIPLAPWNEGASGFSQLTTPTLVVACENDLIAPVRVHASPFYNVIPNTTDKAFLEVNNGSHSCANGGGVNGGLLSKYGVSWMKRFIDEDTRYQQFLCGPNHSANPAISEYRDTCNY
B10: unnamed (protein)
chain: MFPYVAVRVTEETNSRRTTLSNKAATRVSFNRQETDVKFKFVKTALVAAAMACSASAFAQYQKGPDPTTSSLERAGSFATRTLNVSSLSASGFGGGRIWYPTASGSYGVVAVSPGFTGTASTMYFWGERLSSHGFVVIVIETNTLYDQPDSRARQLTSALNYVVSQGNSRTSALYGKVDGNRRAVAGHSMGGGGTLIAAADNPSLKAAIPMAPWNLSSLSFSRIRVPTFIFSCQSDAIAPVAQHSNPFYNAIPSTTSKNLVEMRLDDHFCVMNGGGHYETLGKLGIAWVKRFVDQDTRYSKFLCGNEYNSTVRSTEVSSNRNNCPY
B11: unnamed (protein)
chain: MKSFLKKIYLGTGMLLVSANALSYTPAPTPNPTPITTPVECQDDCDFSRGPNPTSSSIEGVGPYSVATQNVPSSVSGFGGGTIHYPRGISGTVGAIAVVPGFVSPESSIIWWGPRLASHGFVVITIATNSIFDQPASREAQLGRALDYVINQNNSSNSPISGLVDTSRLGAMGWSMGGGGSLRLASGDRLSAVIPLAPWNEGSRGFRQLETPTLVIACERDLIAPVGVHASPFYNAIPSTTDKAFLEVNNGSHSCANGGGINGGLLSKYGVSWMKRFIDNDTRYQQFLCGPNHAANPAISEYRDTCNY
B12: unnamed (protein)
chain: MKFEPLPGASPAVQPSMRFVLKRAGMATALLLSSFAAQAQVALVQENFSAGLGNFTAVGTVNTSDGSARLQGCYGCTDAVITSNAISTQGFTNLSLSFDRATAGLDTGEAGTAEFSTDGANWTIVESTRTTTTGRVSFALPASAAAQAALRLRFRINASLSSETYVVDNIQLTGTPGDPGDPDDPGANPFAKGPNPTAELLESSTGPFTYSSTVVARSAASGYGGGTIYHPTNVAGPFAAIAISPGYTGTKSTMSWWGQRLASHGFVVITIDTNSTTDQPSSRATQLMASLRQLVTFSNTSSHPIYRKVDPNRLGVMGHSMGGGGTLIAARDNPTLKAAIPLAPWSSVGNTNFSSVQVPTLVVACEADAIAPVAQHASPFYNSISGSTRKAYIEMNNGDHLCVMTGNSYTRIMGKYGVSWMKRFMDNDTRYSPFLCGAPHQADLSNAQVSEYRENCPY
B13: unnamed (protein)
chain: MISTRRFPMRRLAIGLVFVFAAVLGACDWRGPTPTEQLLTASTGPFTVSTLAVPTSAGFGGGTIYYPSTTPGPFAVVSLSPGFTESQSAIAGWGPRLASHGFVTIIINTSNPFIDPSQRSTEQRQALTYVVTQGQTSGSPIFGKVDGQRRGVGGHSMGGGASLISAQADPTIRAVMPMAPWNSSASFPGITSPTLILACQNDGIAPVGSHASPMYNSIPASTKKEYISVAGGDHSCANAPTGGGSAVGKFGVAFLKRFLDNDGRYDPWTCGASKPVAGGSLSEVRSTCPF
B14: unnamed (protein)
chain: MKGIRTRVLPVGKKNTGVKMRCAWRRRVSAFTQSAILHNTHSQETPVMSDPRLSVARLAWAGILLMGAASATCQAQTNPFERGPDPTSSLLNASAGPLATASVAVASPTGFGGGTIYYPTAANTYGVIALCPGFTGTQSSVAWLGSRLASHGFVVVTMNTNSSLDFPASRATQLMAALNHVINNSNATVKSRIDPNRRAVGGHSMGGGGSLIAAQNNPSLKGAYPLTPWNTSTNFSGVGVPTMIIGADGDTTAPVGSHARPFYASLPAATLKAYGELNGATHSTPTSTNTPTGRYAVSWMKRFVDTDTRYSPFLCGAEHTSYATATVFDRYQQNCPY

Substrate: BHET
Details: 120 h

Protein | plate clearing
B1 | not clears the plate
B2 | not clears the plate
B3 | not clears the plate
B4 | not clears the plate
B5 | not clears the plate
B6 | not clears the plate
B7 | not clears the plate
B8 | not clears the plate
B9 | not clears the plate
B10 | not clears the plate
B11 | not clears the plate
B12 | clears the plate (z > 3 vs empty vector)
B13 | not clears the plate
B14 | not clears the plate
